Values quoted from earlier work in article PMC2903477.

Molecular target: TrkB (Homo sapiens) (UniProt Q16620)
Chain of UniProt Q16620 (Q16620 32-430): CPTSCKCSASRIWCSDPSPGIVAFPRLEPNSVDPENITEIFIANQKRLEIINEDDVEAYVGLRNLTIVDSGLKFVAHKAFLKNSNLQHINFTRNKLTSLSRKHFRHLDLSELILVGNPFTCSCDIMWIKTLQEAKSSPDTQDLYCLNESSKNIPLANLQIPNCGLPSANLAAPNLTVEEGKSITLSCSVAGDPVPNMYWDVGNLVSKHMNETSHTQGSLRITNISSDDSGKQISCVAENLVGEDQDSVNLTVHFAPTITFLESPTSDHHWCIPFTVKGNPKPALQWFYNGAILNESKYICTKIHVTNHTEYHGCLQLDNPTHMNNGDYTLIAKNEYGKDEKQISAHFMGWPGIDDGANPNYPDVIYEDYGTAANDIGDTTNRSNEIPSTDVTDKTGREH

In the case of BDNF (from UniProt P23560), the Kd is given as 100 pM.
